Assay results from US20160185875A1 (DCB USA, published 2016).

Target: T1, EGFR on EGFR-positive SW480 cells (human, UniProt P00533 25-1210)
T1 construct: whole, on cells; also called epidermal growth factor receptor
Assay: cell-based ELISA on EGFR-positive SW480 cells, around 2 hours after MMP2 treatment
Method: Briefly, EGFR-positive SW480 cells or HER2-positive SKBr3 cells were seed on a 96-well plate by 10⁵ cells/well using 200 μl of growth medium (DMEM+10% CCS+1% P/S), and incubated at 37° C. overnight.

B1: MMP2-treated IgG1 hinge/MMP2/panitumumab (antibody, V domains shown, not shown: small tags and cut ends)
VH: QVQLVQSGAEVKKPGASVKVSCKASGYTFTSYWMHWVRQAPGQGLEWMGNIYPGSGGTNYAEKFKNRVTMTRDTSISTAYMELSRLRSDDTAVYYCARSGGPYFFDYWGQGTLVTVSS
VL: DIVMTQSPLSLPVTPGEPASISCRSSQNIVHNNGITYLEWYLQKPGQSPQLLIYKVSDRFSGVPDRFSGSGSGTDFTLKISRVEAEDVGVYYCFQGSHIPPTFGQGTKVEIKR
notes: m14 around 2 hours after MMP2 treatment
With B1 the “antigen binding capability (% of parent antibody)” value was roughly 90%.
